Measured values reported in patent US20230365705A1 (DYNAMICURE BIOTECHNOLOGY, published 2023).
Like-named read-outs stand apart in the source and are kept apart here.

T1: Human CD93 on cells (human CD93 expressing CHO cells; HUVEC, U937 and KG1a cells) (human, UniProt Q9NPY3 22-652)
T1 construct: whole, on cells; also called hCD93 expressing CHO cells; hCD93 CHO cells
T1 sequence (looked up): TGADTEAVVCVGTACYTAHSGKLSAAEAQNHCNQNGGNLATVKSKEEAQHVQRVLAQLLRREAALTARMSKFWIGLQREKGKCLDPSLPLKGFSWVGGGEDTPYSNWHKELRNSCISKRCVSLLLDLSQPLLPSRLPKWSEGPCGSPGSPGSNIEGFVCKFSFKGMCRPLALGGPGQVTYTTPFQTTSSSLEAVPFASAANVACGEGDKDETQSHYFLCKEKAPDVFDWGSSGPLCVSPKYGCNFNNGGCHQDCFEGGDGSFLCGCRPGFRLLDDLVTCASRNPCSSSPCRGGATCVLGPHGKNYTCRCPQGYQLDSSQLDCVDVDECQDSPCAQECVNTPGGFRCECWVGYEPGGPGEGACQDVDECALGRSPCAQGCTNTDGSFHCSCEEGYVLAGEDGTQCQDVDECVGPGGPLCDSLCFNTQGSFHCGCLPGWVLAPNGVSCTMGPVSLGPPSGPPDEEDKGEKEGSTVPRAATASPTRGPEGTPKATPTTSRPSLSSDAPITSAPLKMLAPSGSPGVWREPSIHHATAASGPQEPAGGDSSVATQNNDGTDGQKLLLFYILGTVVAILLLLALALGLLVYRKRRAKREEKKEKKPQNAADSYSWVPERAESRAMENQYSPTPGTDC

B1: h7F3 (humanized 7F3, VH3+VL3) (antibody, human IgG1, V domains shown)
VH: QVQLVQSGAEVKKPGASVKVSCKASGYTFTDYEMHWVRQAPGQGLEWMGGIDPETGDTAYNQNFKGRVTMTTDTSTSTAYMELRSLTSDDTAVYYCTNYGNLYYYAMDYWGQGTSVTVSS
VL: EIVLTQSPSSLSASVGDRVTITCRASSSVSSSYLHWYQQKPGKAPKLLIYSTSNLAFGVPSRFSGSGSGTSYTFTISSLQPEDIATYYCQQYSGYPLTFGSGTKLEIK
notes: also called humanized 7F3-hIgG1
B2: h16E4 (humanized 16E4, VH4+VL6) (antibody, V domains shown)
VH: QVQLVQSGAEVKKPGASVKVSCKASGYTFTSYWMHWVRQAPGQGLEWMGEIDPSASYTYYNQKFKGRVTMTRDKSSSTVYMELSSLTSEDSAVYYCARSVYYGNKYFDVWGAGTTVTVSS
VL: DIQMTQSPSTLSASVGDRVTITCKASQSVDYAGDSYMNWYQQKPGKAPKLLIYAASNLESGVPSRFSGSGSGTEFTLTISSLQPDDFATYYCQQTNEDPRTFGGGTKLEIK
notes: Detected with anti-human IgG, so a human Fc

Experiments:
[1] = molecular target: T1, Human CD93 on cells (human CD93 …); test: flow cytometry titration, CHO-hCD93 cells; antibody stored 4 weeks at 40 C
Protocol: (§1) Human CD93 expressing CHO cells were detached by incubation with TrypLE reagents (Thermo Fisher), which preserves the integrity of CD93 on the cell surface. Then the cells were incubated with serial diluted anti-CD93 antibodies for 30 minutes in 4° C. After washing by FACS buffer, the cells were incubated with Alexa Fluor 647 conjugated anti-human IgG (Jackson ImmunoResearch) for 30 minutes at 4° C. After washing by FACS buffer twice, the samples were acquired in NovoCyte Flow Cytometer and analyzed by NovoExpress software.

[2] = molecular target: T1, Human CD93 on cells (human CD93 …); test: as above; remark: listed apart in the source
Protocol: as §1, with “minutes at” for “minutes in”, “minutes in” for “minutes at”

Binder | EC50 [1] | EC50 [2]
B1 | 0.195 nM | –
B2 | – | 0.312 nM
